Experimental data from PMC7244511, “Phosphoproteomics identifies dual-site phosphorylation in an extended basophilic motif regulating FILIP1-mediated degradation of filamin-C” (Communications Biology, 2020).

T1: FILIP1 CT-GFP (expressed in HEK293 cells) (UniProt Q7Z7B0-2 776-1177)
T1 construct: FILIP1 carboxy-terminus (CT); also called FILIP1-GFP CT; wild-type FILIP1 CT-GFP; source: HEK293 (HEK293T), transfected, in lysate
T1 sequence (looked up): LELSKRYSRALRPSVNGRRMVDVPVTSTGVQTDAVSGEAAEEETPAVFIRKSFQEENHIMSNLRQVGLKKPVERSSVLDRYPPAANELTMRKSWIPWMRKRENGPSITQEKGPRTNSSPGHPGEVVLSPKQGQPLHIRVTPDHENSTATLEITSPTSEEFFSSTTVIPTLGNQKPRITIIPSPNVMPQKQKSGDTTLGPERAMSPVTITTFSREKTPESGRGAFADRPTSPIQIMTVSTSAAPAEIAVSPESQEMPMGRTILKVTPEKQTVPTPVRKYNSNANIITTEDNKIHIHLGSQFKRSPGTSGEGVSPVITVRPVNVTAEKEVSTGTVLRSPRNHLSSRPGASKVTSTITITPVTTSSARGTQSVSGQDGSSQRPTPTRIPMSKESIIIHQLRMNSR


Tests used:
[1] = target: FILIP1 (filamin A-interacting protein 1), carboxy-terminus (CT) carboxy-terminus (CT) (UniProt Q7Z7B0); assay: co-immunoprecipitation, quantitative immunoblot; conditions: reference: wild type; sites S2233,S2236
[2] = target: FILIP1 (filamin A-interacting protein 1), carboxy-terminus (CT) carboxy-terminus (CT) (UniProt Q7Z7B0); assay: anti-Myc co-immunoprecipitation, quantitative immunoblot; conditions: reference: wild type; sites S2233,S2236
[3] = target: T1, FILIP1 CT-GFP (expressed in HEK293 …); assay: fluorescence correlation spectroscopy (competition); recombinant FLNc d19–21 (44,000 to 21 nM) or its DD mutant (60,000 to 78 nM) titrated to HEK293T lysate with FILIP1 CT-GFP bound to Myc-hFLNc d18–21 DD; PBS pH 7.4, 0.05% Tween-20, 20 °C; conditions: one partner purified

| Molecule | binding against the reference [1] | binding against the reference [2] | Kd [3] |
| --- | --- | --- | --- |
| human filamin-C (hFLNc) Ig-like domains 18-21 (d18–21) (from UniProt Q14315) AA (S2233A/S2236A) | stronger | stronger |  |
| recombinant hFLNc d19–21, wild type (domain or fragment, human, UniProt Q14315 2036-2410, looked up, human filamin-C, Ig-like domains 19–21; also called wildtype hFLNc d19–21; non-phosphorylated hFLNc d19–21) SEIGDASKVRVWGKGLSEGHTFQVAEFIVDTRNAGYGGLGLSIEGPSKVDINCEDMEDGTCKVTYCPTEPGTYIINIKFADKHVPGSPFTVKVTGEGRMKESITRRRQAPSIATIGSTCDLNLKIPGNWFQMVSAQERLTRTFTRSSHTYTRTERTEISKTRGGETKREVRVEESTQVGGDPFPAVFGDFLGRERLGSFGSITRQQEGEASSQDMTAQVTSPSGKVEAAEIVEGEDSAYSVRFVPQEMGPHTVAVKYRGQHVPGSPFQFTVGPLGEGGAHKVRAGGTGLERGVAGVPAEFSIWTREAGAGGLSIAVEGPSKAEIAFEDRKDGSCGVSYVVQEPGDYEVSIKFNDEHIPDSPFVVPVASLSDDARR |  |  | 1170 nM |
